# According to PMC6966814, “Receptor kinase FERONIA regulates flowering time in Arabidopsis”:
# B1: pFER-Mutant competitor B (AAATATCT to GGGGGGGG) (dsDNA)
# DNA 1: TCTCCCCCAGGGGGGGGCTGTCTTC
# DNA 2: GAAGACAGCCCCCCCCTGGGGGAGA
# B2: pFER competitor A (unlabeled WT) (dsDNA)
# DNA 1: TCTCCCCCAAAATATCTCTGTCTTC
# DNA 2: GAAGACAGAGATATTTTGGGGGAGA
# B3: pFER probe (EE element), FITC (dsDNA)
# DNA 1: TCTCCCCCAAAATATCTCTGTCTTC
# DNA 2: GAAGACAGAGATATTTTGGGGGAGA
# Columns and labels:
# [1] = target: T1, GST-CCA1 (… CLOCK-ASSOCIATED1) (Arabidopsis thaliana, UniProt P92973 1-608); assay: competition (EMSA); 100x unlabeled competitor vs FITC-pFER; did not compete; EMSA: 100 mM Tris-HCl pH 8.0, 5 mM DTT, 2.5 mM EDTA, 0.25% Triton X-100, 25% glycerin; competitor 15 min then probe 20 min; 4% native PAGE, 0.5x TBE; temperature not stated; settings: protein: recombinant; label: none; blunt
# T1 sequence (P92973 whole entry): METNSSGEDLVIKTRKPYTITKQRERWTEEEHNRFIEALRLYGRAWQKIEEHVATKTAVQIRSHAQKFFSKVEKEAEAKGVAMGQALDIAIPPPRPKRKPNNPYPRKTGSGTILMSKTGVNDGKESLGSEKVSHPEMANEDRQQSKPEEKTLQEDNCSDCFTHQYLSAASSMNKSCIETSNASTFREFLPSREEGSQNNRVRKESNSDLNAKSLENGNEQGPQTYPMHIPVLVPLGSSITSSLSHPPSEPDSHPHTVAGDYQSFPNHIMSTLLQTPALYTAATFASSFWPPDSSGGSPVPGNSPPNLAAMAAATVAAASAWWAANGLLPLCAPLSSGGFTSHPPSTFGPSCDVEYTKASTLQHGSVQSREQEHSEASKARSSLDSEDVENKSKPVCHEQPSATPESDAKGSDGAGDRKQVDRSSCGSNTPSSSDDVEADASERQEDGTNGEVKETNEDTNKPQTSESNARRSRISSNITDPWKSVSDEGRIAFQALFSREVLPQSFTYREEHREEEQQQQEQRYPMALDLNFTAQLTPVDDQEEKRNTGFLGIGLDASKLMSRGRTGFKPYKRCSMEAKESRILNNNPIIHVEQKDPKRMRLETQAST
# [2] = target: T1, GST-CCA1 (… CLOCK-ASSOCIATED1); assay: competition (EMSA); 100x unlabeled competitor vs FITC-pFER; EMSA: 100 mM Tris-HCl pH 8.0, 5 mM DTT, 2.5 mM EDTA, 0.25% Triton X-100, 25% glycerin; competitor 15 min then probe 20 min; 4% native PAGE, 0.5x TBE; temperature not stated; settings: protein: recombinant; label: none; blunt
# [3] = target: T1, GST-CCA1 (… CLOCK-ASSOCIATED1); assay: EMSA; 20 fmol probe, 5 ug protein; EMSA: 100 mM Tris-HCl pH 8.0, 5 mM DTT, 2.5 mM EDTA, 0.25% Triton X-100, 25% glycerin; competitor 15 min then probe 20 min; 4% native PAGE, 0.5x TBE; temperature not stated; settings: protein: recombinant; label: FITC on strand 1 (S35; printed after its 3' end); blunt
binder,measurement,setting,value
B1,binding result,[1],no binding
B2,binding result,[2],binds
B3,binding result,[3],binds
